Measured values reported in patent US11447574B2.

Target: human IL-17A (human) (UniProt Q16552)

How did the IC50, picomole, as defined by the cell IL6 test turn out when “AIN457 (anti-IL-17A antibody by Novartis)” was run?
The IC50, picomole, as defined by the cell IL6 test was 1100 picomole.
